Laboratory results reported in the NTF2 design screens of Basanta et al. (2020).

Assay: protease stability score; higher = more stable; yeast display proteolysis, trypsin and chymotrypsin;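 note: relative to predicted unfolded state with 0 unfolded-like and 1 meaning tenfold more protease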
Sequence “DSLEKHTEDSLRFFLHILRTGDEEELSDLLDPRTRYEFNGKEFHGREQVVEVLIRLAEHIRIEELHVTHVEVYGDKVNSETLLIVDVDGQKRILHTRVLATKVNGKWLFQRIRIV” has a protease stability score of 2.17.
Work on “DEDVKTLEHLLRLINDINRTGDEERWMHEADPNTLVIYDGVESHGRESVMKLYHKHWEQLRIEEIHIHHIKMQGNKATIHGRLRGEIDGREKSFTIHVHIILINGQIQSITFRIE” yielded a protease stability score of 1.02.
“DEDKKRSEEISKTMIEAMETGDEDRLHELLDPHVRMEIRIGDKHIIDHGREMMLHWSRRYPNLQFRLSHIDVQGDKIHAHWLVHIGDKTRDVELELQVVDGQIHSIHLRIR” showed a protease stability score of 1.52.
Work on “DTEDHLSHRVLEYHQEVEKTGDWHELFNNIDPHARMSVGDKRYHGMESMSKWLSRIKNAKIDEEHIEIQGNKIILHGTINVDGVRIESIILSLKVDGRWLRKEVRFH” yielded a protease stability score of 0.19.
Sequence “DEEEELARKYTEIYRHFMHTGDEDLNREFADPNTQILQGNKRFHGWKWYLEIVRRLGADHMEIHRVDVQGDKVHNDGRMIVNGKTLHFELIITKIDGRWVLREVRLG” has a protease stability score of 1.4.
Sequence “DEDKHLIETFLERLERILKTGDEEDERRLADPHAKLVQGDKILHGREELIRWLRELGAKHVRLHISHLDVQGDKVETDLRLIIIQGDKEYEKDMKVHVLKVDGRWLLKSIIVE” has a protease stability score of 2.08.
In the case of “DELHKHAEHMAKLIVETLETGDEDKIRELADPNVRMEIGDKRTIGREELTKLLRKWLSEWRVHDMHVESVEMQGDYTHLHTSVRGEVNGRHRELDTRIDVLVVNGRLKSLRLEIR”, the protease stability score was 1.04.
“SEEEERLRTIAEVLLHLLLTGDEEHLERLMDPHARYEQGDKHAIGREEVSHLFRRLLEHMRTREIHLHRWHSVNGVIYLDTRVIMEVNGRRIDTDTKVVVVVVDGKVRSMRNQFN” gave a protease stability score of 0.113.
With “DEEERLSREILELNIEVLETGNEHVVRELLDPHVKMEVGDKEYHGREEFVTLFHHFGIDHFHIHEIRFIGNKAEMHVSSEINGRRFSILIIAHKVNGKWIMHTMHVE” the protease stability score was -0.037.
In the case of “DEDRKYVEELMRKIWEAMHTGDEKFFNNLADPHYRLRIGDKNFIGRDEFHKFLRHIRMTVEDFQERDSDEIDGVIIIIGETTYIFIVNGQEKHHVVEVEIIIIKIDGRWLLHSVNIH”, the protease stability score was 1.27.
Work on “SEEDEMVRYVFELYAIAIETGDEDTLRNMFDPNAKIKFDGVDIHGRENIKRILREWRSSVHHWQIREKEIYGDKISLNVFQDLRFTIDGQFRRITTEVKVEIIKINGKWFFTHLEYI” yielded a protease stability score of 0.995.
In the case of “DEDEEFSKEAFEMVEWVIRTGDERLIEHMMDPNAKILIDGQEFWGRHIFSKHVEELGIDHIDDFQVKDVTFFNGRVNLNGELRGNFNGKETTFELHTIALKVNGQWINHSLEIK”, the protease stability score was 0.658.
In the case of “TEEEEENMDFLHKWLERTRTGDEHEIKKLADPDVRLRVGNKEIHGRDLFARWAKEIRITHLDEKRFHIYNGKVDFDGINHVTVNGVDETRKVIFHLVKVDGVWRFKEVDIR”, the protease stability score was 0.98.
Sequence “DEEEERVRNFVERLSKAVRTGDEEEMRDLFDPDVKSRQGDKDVIGRELVAEWLSKFFLRRGIEVHFELKRFEFQGDYLHLRLHVEVRIDGKDHTLTMYVLLIKVDGRWILHSIHRE” has a protease stability score of 1.54.
With “SEIDREAEELVHLLAEFVETGNEERWLELLDPHVRLDFDGVISHGREHYIEFWRRLKENLGIDKVSFRVRRRKTQGEKAHSDMETDINGQKYHMEVLVVVINGVVKHSEFHYN” the protease stability score was 1.07.
In the case of “DEDEREVAEVLRRWLHDFLTGDEKEFHRLVDPHVKYREHYNGQQIHVHGRENLFEFIRRRNEEMRMEILIRDWKVQGDYAESEGEVIFDINGRIHSVDLRVEIIVVNGRVSKVHISVN”, the protease stability score was 0.847.
“DETEEMIKRHMDKLFRAVRTGDWDQFVKLADPNTRIEVGDFHYHGWERFSEFMSELRIHRFRMHDSEVVNGRVHLHTEEDGEVNGKRRESRVHRVLLKIDGRWHLHSVHIE” showed a protease stability score of 0.909.
For “DQRERDQHIALEIWLLVLETGDERYVRRYADPRMRIEVGDKEIHGREDALEFRTEELRHMRLRDFRNKSFTVIDGRVDFYGHLLIEVDGRSQIFDSRLIILKVNGRWFLESEIRH”, the protease stability score was 1.43.
With “DDEKEEVERLARLFIHYVLTGDEDTLREMVDPNVRIRIGDKRNHGMKFLLHLITVWLERVDHVRIEVDESRLVNGQLNMTGTLHLHQGDKTQELRTRSHLVIVNGVMKEITFEYD” the protease stability score was 2.06.
“SELERHAKEIAKIFSEVESTGDEDRMWELVDPDVRLHVGDKEFHGMEWVITLIREHLRHIRLKHVEITHIRVIDGRVDVDTRIHGIINGRELVTKSRIIIDKINGRWLVSSLKYE” gave a protease stability score of 1.15.
“DEVEENAIRIAEDMLNNVLTGDEHLLRQLLDPHVRFILIVGDKTYTWHGREDFLEWLRKRLKQIDHEHIIIRDIKVVGDKAHIDGELHINVNGRTEDTRVHWDILVINGRIHKIRIIIH” showed a protease stability score of 1.38.
Sequence “HETEQRLEHHIKLWFKAFMTGDEELLKFLADPNVRVDDDVNGVRFLNIGMEKLAEWLRKWLRRVPNVKFDLEDVKIFENRTHIDSRLDIDGKEIELHIHLILINGRIQEIRFSVK” has a protease stability score of 1.49.
Sequence “SEDEESMRRAMEIWEKTMETGDERIYEELVDPDVKIEINGKNFIGREDAVKVFHKLGIKVSEIREVRIIGDKMILKGEDNINGRNVDSRLITRKINGKWIIESFSIV” has a protease stability score of 1.22.
For “SESEHKAREMIRLIEHFLITGDEESWHRLFDPHTRVVIDGREIHGMEIYNHWLKELRIRDSHIHIRTIEDINGRINIHGELQLHGIINGQTHDFRSHIDLHVLKFNGRWHMETYIIS”, the protease stability score was 1.57.
Work on “SEEDELAKYVIRLWVEEFRTGDEESMFRLLDPHVLVQQGDKEYHGRERWEDFIRKLGLQNVRVEVHRVTIQGEFIHVDGIIEIGDKRTRYILYFEKFNGRWINKELRIK” yielded a protease stability score of 1.48.
In the case of “SEDKELADRFLNHITHLIRTGDENALSENLDPNTRLHIGDKHYIGWEEFLRIISERWKRADHQDVKLRDSRVQGDKVHLDGEIILIVDGKEIRHDFRIIVYKIDGRWHLESIRIG”, the protease stability score was 2.09.
For “DQEEREDRKILKLLVELWRTGNEEVLEHLLDPNVKMRLEFEGREDSAHGRESMIEMLRRVWKVLGIKHERLESVHVFDGVVIITMRLSVDGREQDIQLLFFVYDGRIKSIVIRVRDR”, the protease stability score was 1.45.
Work on “NEEEETARHAIEEFVRVLMTGDWRTLERLLDPNYRIYQGDKTYIGMEHFLELWVHILDRIKNLRLEIHSYEIQGEKVHIHTILNYDGRDIEYVIIQIKINGRWLLHSLHFL” yielded a protease stability score of 1.24.
“DEEQELTEMVFRIIKRLNETGNEEELRRNADPHVRLDWNGVHYHGREVYDHVWNMLGFEIKDTRIRDIRMQGEKIFVDGERRGNINGRTIDTRIIIIIIAVNGRMKEIVIRDL” showed a protease stability score of 1.3.
“DEVEKIVYDFLQRHIEHLLTGDEDSFTHNLDPHVRIHIDGQRLIGREDARREVRRLGFDHVEITKIEHQGEKLIVHGTMIINGQEIHLTIYIWKINGRWVVQSIEIK” showed a protease stability score of 0.706.
Sequence “DEEDERLHEFAKLFADLWFTGDEEELHDLIDPHAKLNVDVNGRILDSHGREEFVKVLRKLREHLGVDHVELKDMKVQGDKVIIHGVLIINGRRFDSTLWVYIFNGKIESMEVRMR” has a protease stability score of 1.69.
With “DDMQEIVLRIAEELIHRETTGDEEFIKRLLDPRVRLEINGVDSIGMEEFWRFLFEEEHKLGVDHVRFDIKHIRVVDGRAHSIGILNLNINGKEHRFDVRIDIVVIDGRVREVRIEIR” the protease stability score was 2.51.
“DEHDESVRTAWEYYKRVIETGDEDISKKLADPHMKFEFENHSIHGWENIYRELTRLMREMRIHHVEIEHFRVYGDFVEIHIRVDGTVNGRRIITKMDLYITKIDGKWYLHSRRIE” gave a protease stability score of 0.543.
For “DEDREDARKIFHDFIRALNTGDEDTLAELLDPNTKIHIGEFNLIGMERVREWLQRVDHTHTHIKVRRVDVVNGQIIMDTETEIHIHIGDFTLEIQTRTEMVILKINGRWFIKRVNLI”, the protease stability score was 1.72.
“SEIQDISDLAFELIWRSLNTGDEHMLLELLDPDARTHVNGKTFHGRESAVHLFRYLLTLMGIDHIHIEDFKIEFQGDKVIIRMTTRSHQGDKEFHTRFLIIVRKVDGRWINEEISIHVE” showed a protease stability score of 0.937.
For “TELREIFIHFAEMILENIQTGDEDTLDELADPNTRIDINGVTMHGREKISRHWKEHLDRYDHFRIEIKRIRSQGDFAENDVTLVIIYNGQRIRIRMEVEIIFVDGRIHSINERRE”, the protease stability score was 0.225.
With “DEDKTNLDMALRLLKEVTETGDEETLLKMMDPNVRIIINGRDVHGRENAERFATEWSRKVKNATLEVKDFHSQGEKVHLLGHDIFNGREIEFRIIWVKYNGRWFIHEIIFI” the protease stability score was 1.3.
“TEEQEESTRAYEEILQYIRTGDERQMTKYADPHVKLIFNGKEIHGREMFVELVKQYGIDHHHIHNWDFINGRVRMETHVRQGDKHDNAHIDMTKFDGKWIVRLFVFV” showed a protease stability score of 0.856.
Sequence “DEESKFLTEMLEDILRALITGDEEHLQTLMDPDVRVEVGDKLFIGREQASEFWRREFEEIRIDDFRIHHLEVIDGRVHVHGRVDGTIGDKHHRREIIIHDLIVNGRIKKIRIEIH” has a protease stability score of 1.31.
“DEDSYNSHRALEDLWRDLETGDEENLNKLADPHARVKQGDKEFHGMHHWIHFLESLGITKVHVRIHRIQTQGDKVRIVGEIEFNGRRHHSIIFIEKINGVWLVHKMEIK” showed a protease stability score of 1.41.
Sequence “SEEEKEAERMLRLWIETVKTGNEEVWRELFDPNARMLIGDKESVGREQIEELVRSVYDRLGAKVIHDFYIDRIHVIGDKVEIDSRVDSIINGRRYHLETHIIFVKINGKWVLKSVELR” has a protease stability score of 2.06.
With “SEEEKRAEEWVKLMIHAHLTGDFHLLERFADPHTRVDFNGVENIGMEEVSRWIKEWRRRIDHTEIRLHRIRLQGDKVHVKTELILEYDGRTEFIDSRINLIVINGVLKELRVTLH” the protease stability score was 1.38.
Sequence “SETHKHWEEVARIIIKALETGDFRLFHKLLDPNARLHHDIGDKRVNNVGREEVVRTLKMWIDRFPNVTIELKDMRVIDGVVHHDESLNINGVTVRVHIEIIVFDGKLEEMRIEYR” has a protease stability score of 1.23.
“SEEEREIREIMKRFVQSFYTGDEHSLKKLLDPNVRHEFNGKEEHGWHRVWEDLAFFLRHIRIKHVVLRDVRVQGDKVHAHVEIHEEWDGRERDVEVHMRLEIVDGVVKSVKIEIQ” gave a protease stability score of 1.43.
Sequence “SKHKEQTEHVMKTWEHAMRTGDEDRVSHLLDPNVRFEVGNKEFHGREEMSRHIVEMRFTELRLRDVETQGDKVHFEGEMRGIIDGKEETNKLIVIIYKVNGRWHIRSVHVE” has a protease stability score of 0.618.
Sequence “SEEEDESEEMARLFVKANITGDEKFLYHMADPHVRIHIHQGNKYIELHGREKLEYWLKEWLEKFKNIRYTINDMKVVGEKVTIESTLQIGDKRIHMQIVIVVINGRIHKFEFHLH” has a protease stability score of 0.755.
In the case of “SEHHEKLLHLTTLFLEAFWTGDEDIFHHLLDPNVKSIFNGREIHGRHIFSDLRRQIRVERTHVEHEQIVDGRVFMHGKSDGHINGRTHKSHLEIEIVVFDGKVERIKIELR”, the protease stability score was 0.499.
Sequence “DEHEDNLQHLIHVMTELFITGDWKELRHLIDPNALLHINGKDVHGWHLALEHIVRWREEMGVKHSHVERIHLQGDKTHLHMREHFNGRTVELEIRIIFVNGRLESHEMRIRNN” has a protease stability score of 0.822.
“DEEEELVIHVAHEILHNHLTGDEERWEELADPRTKVEFNGVQNHGREFTNEYRKEFHNRYDHWEIRIRDYRVIDGVAHFDTELIIRQGDKEIRVKVHLEFIIVNGKVSEIRIEVR” showed a protease stability score of 0.607.
“HEDEVFFKLILHLLLEDYRTGDWESLEKFLDPSYKLVFDGKDIHGRERAVTIMRHEAHEMRIEDYHIRSLETQGDKLLLHGKFQGIVNGQRRESEIHLVILKVDGRWLWHSVQIN” showed a protease stability score of 1.01.
